One assay has as its target T1, 4H971-AA.
T1 chain: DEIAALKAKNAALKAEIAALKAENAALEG
Kind of assay: two-hybrid library CCmax.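 Also: natural log of median RNA to DNA barcode read ratio; higher means stronger binding.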 The note with it: mean of both orientations.

The next assay addresses T2, 4H1109-AA.
T2 chain: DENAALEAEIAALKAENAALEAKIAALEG
Briefly: two-hybrid library CCmax.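 Also: natural log of median RNA to DNA barcode read ratio; higher means stronger binding.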

The next assay concerns the target T3, 4H3446-AA.
T3 chain: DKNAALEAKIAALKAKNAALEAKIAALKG
Kind of assay: two-hybrid library CCmax.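 Also: natural log of median RNA to DNA barcode read ratio; higher means stronger binding.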 The note with it: mean of both orientations.

A further assay has as its target T4, 4H3066-AA.
T4 chain: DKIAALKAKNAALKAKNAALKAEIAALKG
Briefly: two-hybrid library CCmax.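 Also: natural log of median RNA to DNA barcode read ratio; higher means stronger binding.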 The note with it: mean of both orientations.

Another assay has as its target T5, 4H146-AA.
T5 chain: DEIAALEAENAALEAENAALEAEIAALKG
Kind of assay: two-hybrid library CCmax.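 Also: natural log of median RNA to DNA barcode read ratio; higher means stronger binding.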 The note with it: mean of both orientations.

Another assay deals with T6, 4H3666-AA.
T6 chain: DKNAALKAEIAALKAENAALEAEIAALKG
Briefly: two-hybrid library CCmax.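 Also: natural log of median RNA to DNA barcode read ratio; higher means stronger binding.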 The note with it: mean of both orientations.

The target of a further assay is T7, 4H3628-AA.
T7 chain: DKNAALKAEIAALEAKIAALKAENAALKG
Kind of assay: two-hybrid library CCmax. The note with it: mean of both orientations.

The next assay addresses T8, 4H2713-AA.
T8 chain: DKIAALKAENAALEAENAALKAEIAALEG
Kind of assay: two-hybrid library CCmax. The note with it: mean of both orientations.

A further assay addresses T9, 4H3121-AA.
T9 chain: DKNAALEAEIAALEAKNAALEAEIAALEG
Briefly: two-hybrid library CCmax. The note with it: mean of both orientations.

A further assay concerns the target T10, 4H3591-AA.
T10 chain: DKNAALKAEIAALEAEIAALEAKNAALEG
Briefly: two-hybrid library CCmax.

A further assay deals with T11, 4H3920-AA.
T11 chain: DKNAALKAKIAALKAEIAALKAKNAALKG
Briefly: two-hybrid library CCmax. The note with it: mean of both orientations.

Another assay addresses T12, 4H3939-AA.
T12 chain: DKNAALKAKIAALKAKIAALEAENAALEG
Kind of assay: two-hybrid library CCmax. The note with it: mean of both orientations.

The target in a further assay is T13, 4H2248-AA.
T13 chain: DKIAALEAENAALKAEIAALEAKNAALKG
Briefly: two-hybrid library CCmax. The note with it: mean of both orientations.

The target of a further assay is T14, 4H497-AA.
T14 chain: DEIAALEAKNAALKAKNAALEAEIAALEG
Kind of assay: two-hybrid library CCmax. The note with it: mean of both orientations.

In a further assay the target is T15, 4H1809-AA.
T15 chain: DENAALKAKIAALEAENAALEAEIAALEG
Kind of assay: two-hybrid library CCmax. The note with it: mean of both orientations.

The target in another assay is T16, 4H3102-AA.
T16 chain: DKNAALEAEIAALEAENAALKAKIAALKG
Briefly: two-hybrid library CCmax. The note with it: mean of both orientations.

In the next assay the target is T17, 4H3029-AA.
T17 chain: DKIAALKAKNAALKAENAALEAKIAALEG
Kind of assay: two-hybrid library CCmax. The note with it: mean of both orientations.

The target in a further assay is T18, 4H1854-AA.
T18 chain: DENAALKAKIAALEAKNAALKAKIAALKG
Kind of assay: two-hybrid library CCmax. The note with it: mean of both orientations.

The next assay concerns the target T19, 4H2742-AA.
T19 chain: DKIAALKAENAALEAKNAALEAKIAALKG
Briefly: two-hybrid library CCmax. The note with it: mean of both orientations.

The next assay addresses T20, 4H1391-AA.
T20 chain: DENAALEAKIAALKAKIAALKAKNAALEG
Kind of assay: two-hybrid library CCmax. The note with it: mean of both orientations.

A further assay concerns the target T21, 4H2991-AA.
T21 chain: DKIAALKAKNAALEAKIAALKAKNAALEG
Briefly: two-hybrid library CCmax. The note with it: mean of both orientations.

A further assay has as its target T22, 4H2283-AA.
T22 chain: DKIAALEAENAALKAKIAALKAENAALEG
Briefly: two-hybrid library CCmax. The note with it: mean of both orientations.

A further assay has as its target T23, 4H3417-AA.
T23 chain: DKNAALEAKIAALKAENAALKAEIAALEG
Kind of assay: two-hybrid library CCmax. The note with it: mean of both orientations.

The next assay deals with T24, 4H3709-AA.
T24 chain: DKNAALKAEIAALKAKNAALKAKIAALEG
Kind of assay: two-hybrid library CCmax. The note with it: mean of both orientations.

The target of the next assay is T25, 4H391-AA.
T25 chain: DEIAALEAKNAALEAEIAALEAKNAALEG
Briefly: two-hybrid library CCmax. The note with it: mean of both orientations.

Another assay addresses T26, 4H1146-AA.
T26 chain: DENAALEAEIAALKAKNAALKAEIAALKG
Briefly: two-hybrid library CCmax. The note with it: mean of both orientations.

A further assay concerns the target T27, 4H478-AA.
T27 chain: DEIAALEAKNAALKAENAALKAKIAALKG
Kind of assay: two-hybrid library CCmax. The note with it: mean of both orientations.

The target of the next assay is T28, 4H2948-AA.
T28 chain: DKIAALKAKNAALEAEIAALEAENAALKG
Kind of assay: two-hybrid library CCmax. The note with it: mean of both orientations.

For the next assay, the target named is T29, 4H675-AA.
T29 chain: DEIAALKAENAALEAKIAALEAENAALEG
Briefly: two-hybrid library CCmax. The note with it: mean of both orientations.

The next assay deals with T30, 4H1348-AA.
T30 chain: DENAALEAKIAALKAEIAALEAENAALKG
Kind of assay: two-hybrid library CCmax. The note with it: mean of both orientations.

For another assay, the target named is T31, 4H189-AA.
T31 chain: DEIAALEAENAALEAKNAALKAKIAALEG
Kind of assay: two-hybrid library CCmax. The note with it: mean of both orientations.

A further assay deals with T32, 4H656-AA.
T32 chain: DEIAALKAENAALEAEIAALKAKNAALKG
Briefly: two-hybrid library CCmax. The note with it: mean of both orientations.

Another assay addresses T33, 4H428-AA.
T33 chain: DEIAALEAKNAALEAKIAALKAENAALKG
Briefly: two-hybrid library CCmax. The note with it: mean of both orientations.

For another assay, the target named is T34, 4H48-bN.
T34 chain: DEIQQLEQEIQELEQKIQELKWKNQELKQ
Briefly: two-hybrid library CCNG1.

The next assay addresses T35, 4H491-bN.
T35 chain: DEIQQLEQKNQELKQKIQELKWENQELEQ
Briefly: two-hybrid library CCNG1.

In the next assay the target is T36, 4H2937-bN.
T36 chain: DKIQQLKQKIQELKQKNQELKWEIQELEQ
Kind of assay: two-hybrid library CCNG1.

In a further assay the target is T37, 4H342-bN.
T37 chain: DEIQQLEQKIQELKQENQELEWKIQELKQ
Kind of assay: two-hybrid library CCNG1.

Another assay addresses T38, 4H2944-bN.
T38 chain: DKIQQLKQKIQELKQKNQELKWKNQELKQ
Briefly: two-hybrid library CCNG1.

Consider DENAALEAEIAALKAENAALEAKIAALEG [4H1109-AA], for which the interaction score is 0.0745 in the assay with 4H971-AA; 0.484 in the assay with 4H1109-AA; -0.106 with 4H3446-AA; -0.41 with 4H3066-AA; -1.63 with 4H146-AA; 0.67 in the assay with 4H3666-AA. Also, the interaction score with 4H3628-AA was -1.06; with 4H2713-AA it was -1.49; in the assay with 4H3121-AA it was -0.8; with 4H3591-AA it was -1.05; with 4H3920-AA it was -1.35; with 4H3939-AA it was -1.76. Also, the interaction score with 4H2248-AA is -0.482; with 4H497-AA it was -1.77; in the assay with 4H1809-AA, -1.32; in the assay with 4H3102-AA it was 1.35; with 4H3029-AA, -0.926; with 4H1854-AA, 1.5. Further, the interaction score was -1.33 in the assay with 4H2742-AA; -1.71 in the assay with 4H1391-AA; -0.637 in the assay with 4H2991-AA; -0.782 in the assay with 4H2283-AA; 0.592 with 4H3417-AA; 2.13 in the assay with 4H3709-AA. Also, the interaction score with 4H391-AA is -1.46; with 4H1146-AA, 1.4; with 4H478-AA, -1.55; with 4H2948-AA, -1.16; with 4H675-AA, -0.943; with 4H1348-AA, -1.31. Moreover, the interaction score was -0.821 with 4H189-AA, -1.33 with 4H656-AA and -1.21 in the assay with 4H428-AA.
Turning to DKIQQLKQKIQELKQKNQELKWEIQELEQ [4H2937-bN], the interaction score with 4H48-bN was -0.313; with 4H491-bN, -1.11; with 4H2937-bN, -0.616; in the assay with 4H342-bN it was 1.46; in the assay with 4H2944-bN, -1.12.

The record behind these values is paper PMC10397247.
